From patent US20040091487A1 come the findings set out here.

Assay in all cases: cell-based or functional assay
The target of experiment [1] is HIV-1 IN within Gag-Pol (Gag-Pol polyprotein encoded by pCMVDR8.2) (HIV-1).
The target of experiment [2] is HIV-1 IN H12Y within Gag-Pol (pCMV-H12Y) (HIV-1).
Experiment [3] deals with HIV-1 IN within Gag-Pol of the molecular clone HIV-1R3B (HIV-1).

On to HA-E3 (from UniProt Q12824 183-294), for which, in experiment [1], the decrease in the viral titers as compared to the control turned out to be 2 fold and the inhibition of p24 production is 2 fold.
What is called % inhibition is the relative decrease from the control value, in per cent. Read a low % inhibition as little suppression. In the case of “HA-INI1 aa 1-245 (clone 27B) (from UniProt Q12824 1-245)”, in experiment [1], the % inhibition was 16% and the P24 of culture supernatants was determined as 95.6 ng/mL.
In experiment [1], “HA-INI1 aa 141-385 (clone 20.2) (from UniProt Q12824 141-385)” showed a % inhibition of 69% and a P24 of culture supernatants of 35.4 ng/mL.
In experiment [1], “HA-S6 (HA-INI1 aa 183-294) (from UniProt Q12824 183-294)” had a % inhibition of 100%, a P24 of culture supernatants of 0 ng/mL and an inhibition of p24 production of 80000 fold. The decrease in the level of H12Y virion associated p24 production in experiment [2] came to 10 fold. In experiment [3], the % inhibition was > 99.7% and the p24 of culture supernatants worked out at 0.69 ng/mL.
